The results in this text go back to FireProtDB (doi:10.1093/oxfordjournals.jbchem.a002919).

By Tm is commonly meant the temperature at which the thermal transition is half complete.

B1: 3-isopropylmalate dehydrogenase, P50455 (parent)
chain: MGFTVALIQGDGIGPEIVSKSKRILAKINELYSLPIEYIEVEAGDRALARYGEALPKDSLKIIDKADIILKGPVGESAADVVVKLRQIYDMYANIRPAKSIPGIDTKYGNVDILIVRENTEDLYKGFEHIVSDGVAVGMKIITRFASERIAKVGLNFALRRRKKVTCVHKANVMRITDGLFAEACRSVLKGKVEYSEMYVDAAAANLVRNPQMFDVIVTENVYGDILSDEASQIAGSLGIAPSANIGDKKALFEPVHGAAFDIAGKNIGNPTAFLLSVSMMYERMYELSNDDRYIKASRALENAIYLVYKERKALTPDVGGNATTDDLINEIYNKLG

In the data set the parent is B1. To be noted: Sulfurisphaera tokodaii (strain DSM 16993 / JCM 10545 / NBRC 100140 / 7); pH 7; Thermal; CD; Potassium phosphate 20 mM; structure 1WPW; whole UniProt chain shown.

For MGFTVALIQGDGIGPEIVSKSKRILAKINELYSLPIEYIEVEAGDRALARYGEALPKDSLKIIDKADIILKGPVGESAADVVVKLRQIYDMYANIRPAKSIPGIDTKYGNVDILIVRENTEDLYKGFEHIVSDGVAVGMKIITRFASERIARVALNFALRRRKKVTCVHKANVMRITDGLFAEACRSVLKGKVEYSEMYVDAAAANLVRNPQMFDVIVTENVYGDILSDEASQIAGSLGIAPSANIGDKKALFEPVHGAAFDIAGKNIGNPTAFLLSVSMMYERMYELSNDDRYIKASRALENAIYLVYKERKALTPDVGGNATTDDLINEIYNKLG [K152R G154A], the midpoint of thermal melting (Tm) worked out at 97.2 °C and the “change of melting temperature, mutant - wild type (higher = more stable)” value (“change of melting temperature, mutant” below) was found to be 1.2 °C.

For MGFTVALIQGDGIGPEIVSKSKRILAKINELYSLPIEYIEVEAGDRALARYGEALPKDSLKIIDKADIILKGPVGESAADVVVKLRQIYDMYANIRPAKSIPGIDTKYGNVDILIVRENTEDLYKGFEHIVSDGVAVGMKIITRFASERIAKVALNFALRRRKKVTCVHKANVMRITDGLFAEACRSVLKGKVEYSEMYVDAAAANLVRNPQMFDVIVTENVYGDILSDEASQIAGSLGIAPSANIGDKKALFEPVHGAAFDIAGKNIGNPTAFLLSVSMMYERMYELSNDDRYIKASRALENAIYLVYKERKALTPDVGGNATTDDLINEIYNKLG [G154A], the Tm stood at 97.9 °C and the “change of melting temperature, mutant” value stood at 1.9 °C.

Consider MGFTVALIQGDGIGPEIVSKSKRILAKINELYSLPIEYIEVEAGDRALARYGEALPKDSLKIIDKADIILKGPVGESAADVVVKLRQIYDLYANLRPAKSIPGIDTKYGNVDILIVRENTEDLYKGFEHIVSDGVAVGMKIITRFASERIARVALNFALRRRKKVTCVHKANVMRITDGLFAEACRSVLKGKVEYSEMYVDAAAANLVRNPQMFDVIVTENVYGDILSDEASQIAGSLGIAPSANIGDKKALFEPVHGSAPDIAGKNIGNPTAFLLSVSMMLERMYELSNDDRYIKASRALENAIYLVYKERKALTPDVGGNATTDDLINEIYNKLG [M91L I95L K152R G154A A259S F261P Y282L], for which the Tm came out at 96.4 °C and the “change of melting temperature, mutant” value is 0.4 °C.

Turning to MGFTVALIQGDGIGPEIVSKSKRILAKINELYSLPIEYIEVEAGDRALARYGEALPKDSLKIIDKADIILKGPVGESAADVVVKLRQIYDMYANIRPAKSIPGIDTKYGNVDILIVRENTEDLYKGFEHIVSDGVAVGMKIITRFASERIARVGLNFALRRRKKVTCVHKANVMRITDGLFAEACRSVLKGKVEYSEMYVDAAAANLVRNPQMFDVIVTENVYGDILSDEASQIAGSLGIAPSANIGDKKALFEPVHGAAFDIAGKNIGNPTAFLLSVSMMYERMYELSNDDRYIKASRALENAIYLVYKERKALTPDVGGNATTDDLINEIYNKLG [K152R], the melting temperature (Tm) turned out to be 95.6 °C and the “change of melting temperature, mutant” value is -0.4 °C.

For the variant MGFTVALIQGDGIGPEIVSKSKRILAKINELYSLPIEYIEVEAGDRALARYGEALPKDSLKIIDKADIILKGPVGESAADVVVKLRQIYDLYANLRPAKSIPGIDTKYGNVDILIVRENTEDLYKGFEHIVSDGVAVGMKIITRFASERIAKVGLNFALRRRKKVTCVHKANVMRITDGLFAEACRSVLKGKVEYSEMYVDAAAANLVRNPQMFDVIVTENVYGDILSDEASQIAGSLGIAPSANIGDKKALFEPVHGAAFDIAGKNIGNPTAFLLSVSMMYERMYELSNDDRYIKASRALENAIYLVYKERKALTPDVGGNATTDDLINEIYNKLG [M91L I95L], the Tm is 99.2 °C and the “change of melting temperature, mutant” value is 3.2 °C.

For MGFTVALIQGDGIGPEIVSKSKRILAKINELYSLPIEYIEVEAGDRALARYGEALPKDSLKIIDKADIILKGPVGESAADVVVKLRQIYDMYANIRPAKSIPGIDTKYGNVDILIVRENTEDLYKGFEHIVSDGVAVGMKIITRFASERIAKVGLNFALRRRKKVTCVHKANVMRITDGLFAEACRSVLKGKVEYSEMYVDAAAANLVRNPQMFDVIVTENVYGDILSDEASQIAGSLGIAPSANIGDKKALFEPVHGAAFDIAGKNIGNPTAFLLSVSMMLERMYELSNDDRYIKASRALENAIYLVYKERKALTPDVGGNATTDDLINEIYNKLG [Y282L], the Tm was determined as 94.7 °C and the “change of melting temperature, mutant” value was -1.3 °C.

Turning to MGFTVALIQGDGIGPEIVSKSKRILAKINELYSLPIEYIEVEAGDRALARYGEALPKDSLKIIDKADIILKGPVGESAADVVVKLRQIYDMYANIRPAKSIPGIDTKYGNVDILIVRENTEDLYKGFEHIVSDGVAVGMKIITRFASERIAKVGLNFALRRRKKVTCVHKANVMRITDGLFAEACRSVLKGKVEYSEMYVDAAAANLVRNPQMFDVIVTENVYGDILSDEASQIAGSLGIAPSANIGDKKALFEPVHGSAPDIAGKNIGNPTAFLLSVSMMYERMYELSNDDRYIKASRALENAIYLVYKERKALTPDVGGNATTDDLINEIYNKLG [A259S F261P], the Tm was determined as 97.1 °C and the “change of melting temperature, mutant” value was determined as 1.1 °C.
